Laboratory results from the RNAGym collection of RNA variant scans (doi:10.7554/elife.80360).

B1: HDV Ribozyme (parent)
chain: GGCCGGCAUGGUCCCAGCCUCCUCGCUGGCGCCGGCUGGGCAACAUUCCGAGGGGACCGUCCCCUCGGUAAUGGCGAAUGGGACCCA

Variants of: B1
Test: self-cleavage, relative activity (ratio to wild type); higher = more cleavage; co-transcriptional

Compared with GGCCGGCAUGGUCCCAGCCUCCUCGCUGGCGGCGGCGGGGCAACAUUCCGAGGGGACCGUCCCCUCGGUAAUGGCGAAUGGGACCCA [C32G U37G], GGCCGGCAUGGUCCCAGCCUCCUCGCUGGCGUCGGCUGGGAAACAUUCCGAGGGGACCGUCCCCUCGGUAAUGGCGAAUGGGACCCA [C32U C41A] is higher in self-cleavage: 0.0554 for the first, 0.591 for the second.

First: GGCCGGCAUGGUCCCAGCCUCCUCGCUGGCGGCGGCUGGGCAACAUUCCGAGGGGACCGUCCCCUUGGUAAUGGCGAAUGGGACCCA [C32G C66U]
Second: GGCCGGCAUGGUCCCAGCCUCCUCGCUGGCGGCGGCUGGGCAACAUUCCGAGGGGACCGUCCCCUCGCUAAUGGCGAAUGGGACCCA [C32G G68C]
The self-cleavage of the first is higher: 0.162 for the first, 0 for the second.

Compared with GGCCGGCAUGGUCCCAGCCUCCUCGCUGGCGUCGGAUGGGCAACAUUCCGAGGGGACCGUCCCCUCGGUAAUGGCGAAUGGGACCCA [C32U C36A], GGCCGGCAUGGUCCCAGCCUCCUCGCUGGCGUCGGUUGGGCAACAUUCCGAGGGGACCGUCCCCUCGGUAAUGGCGAAUGGGACCCA [C32U C36U] is higher in self-cleavage: 0.17 for the first, 0.493 for the second.

First: GGCCGGCAUGGUCCCAGCCUCCUCGCUGGCGGCGGCUGGGCAACAUGCCGAGGGGACCGUCCCCUCGGUAAUGGCGAAUGGGACCCA [C32G U47G]
Second: GGCCGGCAUGGUCCCAGCCUCCUCGCUGGCGGCGGCUGGGCAACAGUCCGAGGGGACCGUCCCCUCGGUAAUGGCGAAUGGGACCCA [C32G U46G]
The self-cleavage of the first is higher: 0.0594 for the first, 0 for the second.

Going from GGCCGGCAUGGUCCCAGCCUCCUCGCUGGCGGCGGCUGGGCAACAUUCCGAGGGGACCGUCCCCUCGGUAAUAGCGAAUGGGACCCA [C32G G73A] to GGCCGGCAUGGUCCCAGCCUCCUCGCUGGCGGCGGCUGGGCAACAUUCCGAGGGGACCGUCCCCUCGGUAAUUGCGAAUGGGACCCA [C32G G73U], the self-cleavage rises from 0.0615 to 0.0692.

Going from GGCCGGCAUGGUCCCAGCCUCCUCGCUGGCGGCGGCUAGGCAACAUUCCGAGGGGACCGUCCCCUCGGUAAUGGCGAAUGGGACCCA [C32G G38A] to GGCCGGCAUGGUCCCAGCCUCCUCGCUGGCGUCGGCUGGGCAACAUUCCGAGGGGACCGUCCCCUCGGUAAUGGCAAAUGGGACCCA [C32U G76A], the self-cleavage rises from 0.0831 to 0.946.

Going from GGCCGGCAUGGUCCCAGCCUCCUCGCUGGCGUCGGCUGGGCAACAUUCCGAGGGGACCGUCCCCUCGGUAAUGGCUAAUGGGACCCA [C32U G76U] to GGCCGGCAUGGUCCCAGCCUCCUCGCUGGCGUCGGCUGGGCAACAUUCCGAGGGGACCGUCCCCUCGGUAAUGGCCAAUGGGACCCA [C32U G76C], the self-cleavage rises from 0.751 to 0.854.

First: GGCCGGCAUGGUCCCAGCCUCCUCGCUGGCGGCGGCUGGGCAACAUUCCGAGGGGACCGUCCCCUCGGUAAUGGCAAAUGGGACCCA [C32G G76A]
Second: GGCCGGCAUGGUCCCAGCCUCCUCGCUGGCGUCGGCUGGGCAACAUUCCGAGGGGACCGUCCCCUCGGUAAUGUCGAAUGGGACCCA [C32U G74U]
The self-cleavage of the first is higher: 0.271 for the first, 0.176 for the second.

Compared with GGCCGGCAUGGUCCCAGCCUCCUCGCUGGCGUCGGCUCGGCAACAUUCCGAGGGGACCGUCCCCUCGGUAAUGGCGAAUGGGACCCA [C32U G38C], GGCCGGCAUGGUCCCAGCCUCCUCGCUGGCGGCGGCUGGUCAACAUUCCGAGGGGACCGUCCCCUCGGUAAUGGCGAAUGGGACCCA [C32G G40U] is lower in self-cleavage: 0.233 for the first, 0.0791 for the second.

First: GGCCGGCAUGGUCCCAGCCUCCUCGCUGGCGUCGGCUGGGCAACAUUCCGAGGGGACCCUCCCCUCGGUAAUGGCGAAUGGGACCCA [C32U G59C]
Second: GGCCGGCAUGGUCCCAGCCUCCUCGCUGGCGUCGGCUGCGCAACAUUCCGAGGGGACCGUCCCCUCGGUAAUGGCGAAUGGGACCCA [C32U G39C]
The self-cleavage of the first is higher: 0.734 for the first, 0.122 for the second.

First: GGCCGGCAUGGUCCCAGCCUCCUCGCUGGCGUCGGCUGGGCAACAUUCCGAGGGGACCGUCCCCUCGGUAAUGGCGAAUGGGACCCC [C32U A87C]
Second: GGCCGGCAUGGUCCCAGCCUCCUCGCUGGCGUCGGCUGGGCAACAUUCCGAGGAGACCGUCCCCUCGGUAAUGGCGAAUGGGACCCA [C32U G54A]
The self-cleavage of the first is lower: 0.795 for the first, 0.891 for the second.

Compared with GGCCGGCAUGGUCCCAGCCUCCUCGCUGGCGUCGGCUGGGCAACAUUCCGAGGGGACCGUCCCCUCGGUAAUGGCGAAUGGGACCGA [C32U C86G], GGCCGGCAUGGUCCCAGCCUCCUCGCUGGCGUCGGCUGGGCAACAUUCCGAGGGGACGGUCCCCUCGGUAAUGGCGAAUGGGACCCA [C32U C58G] is lower in self-cleavage: 0.739 for the first, 0.646 for the second.

Going from GGCCGGCAUGGUCCCAGCCUCCUCGCUGGCGUCGGCUGGGCAACAUUCCGAGGGGACCGUCCCCUCCGUAAUGGCGAAUGGGACCCA [C32U G67C] to GGCCGGCAUGGUCCCAGCCUCCUCGCUGGCGGCCGCUGGGCAACAUUCCGAGGGGACCGUCCCCUCGGUAAUGGCGAAUGGGACCCA [C32G G34C], the self-cleavage falls from 0.997 to 0.0475.

First: GGCCGGCAUGGUCCCAGCCUCCUCGCUGGCGUCGGCUGGGCAAUAUUCCGAGGGGACCGUCCCCUCGGUAAUGGCGAAUGGGACCCA [C32U C44U]
Second: GGCCGGCAUGGUCCCAGCCUCCUCGCUGGCGUCGGCUGGGCAACAUUCCGAGGGGACCGUCCCCUCGGUAAUGGCGAAUGGGACCCA [C32U]
The self-cleavage of the first is lower: 0.564 for the first, 0.881 for the second.

First: GGCCGGCAUGGUCCCAGCCUCCUCGCUGGCGUCGGCUGGGCUACAUUCCGAGGGGACCGUCCCCUCGGUAAUGGCGAAUGGGACCCA [C32U A42U]
Second: GGCCGGCAUGGUCCCAGCCUCCUCGCUGGCGUCGGCUGGGCGACAUUCCGAGGGGACCGUCCCCUCGGUAAUGGCGAAUGGGACCCA [C32U A42G]
The self-cleavage of the first is higher: 0.591 for the first, 0.244 for the second.

First: GGCCGGCAUGGUCCCAGCCUCCUCGCUGGCGGCGGCUGGGCAACAUUCCGAGGGGACCGUCCCCCCGGUAAUGGCGAAUGGGACCCA [C32G U65C]
Second: GGCCGGCAUGGUCCCAGCCUCCUCGCUGGCGGCGGCUGGGCAACAUUCCGAGAGGACCGUCCCCUCGGUAAUGGCGAAUGGGACCCA [C32G G53A]
The self-cleavage of the first is lower: 0.135 for the first, 0.205 for the second.
